From the nanobody polyreactivity screen of Harvey et al. (2022)

experiment: yeast display, Sf9 membrane polyspecificity reagent, FACS + sequencing; frameworks hold sequencing errors
Method in brief: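 Using colony PCR, genes from sorted yeast display clones were amplified, then sequenced on MiSeq at 2 × 250 and filtered by CDR length. The clones had been stained with 10% biotinylated, detergent-solubilized Sf9 membrane reagent for 1 hour at 4 °C and sorted by FACS into low and high (top ~1%) gates on anti-HA and streptavidin fluorescence. Polyreactivity labels come from the gate of origin.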

Question: Which “polyreactivity (PSR sort gate)” value does the source give for “QVQLVESAGGLVKEGGSLRLSCAASGRTFGVNAMGRYRQAPGKERELVAAITWSGDSTYYADSVKGRFTISRDNAKNTVYLQMNSLKPEDTAVYYCAKKSSLFKHVVRYAYWGQGNQVTVSS” here?
Answer: low polyreactivity

Question: For “QVQLVESGGGLVQAGGSLRLSCAASGSIFADYTMGWYRQAPGKERELVAAISSDDSTYYADSVKGRFTISRDNAKNTVYLQMNSLKPEDTAVYYCNDDGSIGPEEYWGQGTQVTVSS”, which “polyreactivity (PSR sort gate)” value is on record?
Answer: low polyreactivity

Question: Which “polyreactivity (PSR sort gate)” value does the source give for “QVQLVESGGGLVQAGGSLRLSCAASGSIFNYYGMGWYRQAPGKEREFVAAITSNGGTTYYADSVKGRFTISRDNAKNTVYLQMNSLKPEDTAVYYCADRPRYYWRGYDYWGLGTQVTVSS” here?
Answer: high polyreactivity

Question: With “QVQLVESGGGLVQAGGSLRLSCAATGSTFTSYAMGWYRQAPGKERELVAVISFSGGSTYYADSVKGRFTISRDNAKNTVYLQMNSLKPEDTAVYYCAARIYKRYYWGQGTQVTVSS” as the sequence, how does the “polyreactivity (PSR sort gate)” value read?
Answer: high polyreactivity

Question: Which “polyreactivity (PSR sort gate)” value does the source give for “QVQLVESGGGLVQAGGSLRLSCASSGFTFFYYAMGWYRQAPGKERELVAAISASGGSTSYADSVKGRFTISRDNAKNTVYLQMNSLKPEDTAVYYCAARVYSVRSGYYYWGQGTQVTVSS” here?
Answer: high polyreactivity

Question: Which “polyreactivity (PSR sort gate)” value does the source give for “QVQLVESGGGLVQAGGSLRLSCAASGYTIRYNALGWYRQAPGKERELVAAITQRSGSTYADSVKGRFTISRDNAKNTVYLQMNSLKPEDTAVYYCAARTPGYKLYDYWGQGTQVTVSS” here?
Answer: low polyreactivity

Question: With “QVQLVESGGGLVQAGGSLRLTCAASGLTFERYAMGWYRQAPGKETELVAAISIRGGSTYYADSVKGRFTISRYNAKNTVYLQMNSLKPEVTAVYYCSADGRGREYDYWGQGTQVTVSS” as the sequence, how does the “polyreactivity (PSR sort gate)” value read?
Answer: low polyreactivity

Question: With “QVQLVESGGGLVQAGGSLRLSCAASVRTFHYYAMGWYRQAPGKERELVAGITGGGSTYYADSVKGRFTISRDNAKNTVYLLMNSLKPEDTAVYYCADDRSYYGYGYCGQGTQVTVSS” as the sequence, how does the “polyreactivity (PSR sort gate)” value read?
Answer: low polyreactivity

Question: For “QVQLQESGGGMVQAGGSLLWCAASGTISYNREMGWYRQAPGKERELVAGIGVGTITYYADSVKGRFTIIRDNAKNTVYLQMNSLKPEDTAVYYCAAHIDGIDSHAYCGQGTQVTVSS”, which “polyreactivity (PSR sort gate)” value is on record?
Answer: low polyreactivity

Question: Which “polyreactivity (PSR sort gate)” value does the source give for “QVQLVESGGGLVQAGGSLRLSSAASGRIFRYYTMGWYRQAPGKERELVATITSDGRTNYADSVNGRFTISRDNAKNSVYLQMNSLKPEDTAVYYCAARYVMGGQGTSRRVGGGYWGQGTQVTVSS” here?
Answer: high polyreactivity

Question: With “QVQLVESGGGLVQAGGSLRLSCAASGITFTYYAMGWYRQAPGKERELVAAITWRGGSTYYADSVKGRFTISRDNAKNTVYLQMNSLKPEDTAVYYCAADVYVGPYHYEYWGQGTQVTVSS” as the sequence, how does the “polyreactivity (PSR sort gate)” value read?
Answer: high polyreactivity

Question: For “QVQLVESGGGLVQAGCSLRCSCPDSGGIFTRYVMGWYRPAPGKEREMVAAISSRGGSTYYADSVKGRFTISRDNAKNTVYLQMNSLKPEDTAVYYSAAEQGRTSYRYYYWGQGTQVTVSS”, which “polyreactivity (PSR sort gate)” value is on record?
Answer: high polyreactivity

Question: With “QVQLVESVGGLVQAGASLRLSCAASGSTFDYYAMGSYRQAPGKERELVAAISRTGGRTYYADSVKGRFTISRDNAKNTVYLQMNSLKPEDTAVYYCNAVTRIGGGDYDYWGQGTQVTVSS” as the sequence, how does the “polyreactivity (PSR sort gate)” value read?
Answer: low polyreactivity

Question: For “QVQLVESGGCLVQAGGSPRLSCAASGSILTLYAMGWYRQAPGKERELVAAITSGERTNYADSVKGRFTISRDNAKNTVYLQMNSLKPEDTAVYYCATKRWWGRYDYWGQGTQVTVSS”, which “polyreactivity (PSR sort gate)” value is on record?
Answer: high polyreactivity

Question: For “QVQLVESGGGLVQAGGSLRLSCAASGRIFRGYAMGWYRQAPGKERELVAAISNGGGTNYADTVKGRFTISRDNAKNTVYLQMNSLKPEDTAVYYCATGFLQNYYKYTSSFRFYYWGQGTQVTVSS”, which “polyreactivity (PSR sort gate)” value is on record?
Answer: high polyreactivity

Question: Which “polyreactivity (PSR sort gate)” value does the source give for “QVQLVESGGGLVQAGGSLRLSCAASGRIFRLYAMGWYRQAPGKEREFVATITWIGGRTYYADSVKGRFTISRDTAKNTVYLQMNSLKPEDTAVYYCAADPGYTYEYWGQGTQVTVSS” here?
Answer: low polyreactivity

Question: For “QVQLVESVGGLVQAGGSLRLSCAASGFIFKGNAMGWYRQAPGKERELVAAITNRGGGTYYADSVKGRFTISRDNAKNTVYLQMNSLKPEDTAVYYCAKAYTRPFHPYDYWGQGTQVTVSS”, which “polyreactivity (PSR sort gate)” value is on record?
Answer: high polyreactivity

Question: With “QVQLVESGGGLVQAGGSLRLSCAASGSIFISYAMGWYRQAPGKERELVAAISSGGSTNYADSVKGRFTISRDNAKNTVYLQMNSLKPEATAVYYCAADGWLWSFTGDGWWFDYWGQGTQVTVSS” as the sequence, how does the “polyreactivity (PSR sort gate)” value read?
Answer: low polyreactivity

Question: Which “polyreactivity (PSR sort gate)” value does the source give for “QVQLVESGGGLVQAGGSLRLSCAASGFTFRDNAMGWYRQAPGKERELVAAITWDGGSTYYADSVKGRFTISRDNAKNTVYLQMYSLKPEDTAVYYCAASRYYPRYFKRYYYWGQGTQVTVSS” here?
Answer: high polyreactivity

Question: Which “polyreactivity (PSR sort gate)” value does the source give for “QVQLVESGGGLVQAGGSLRLSCAASGSTFSAYAMGWYRQAPGKERELVASNSYSGSSTYYADSVKGRFTISRDNAKNTVYLQMNSLKPEESAVYYCAAVYVRKGTRYGYWGQGTQVTVSS” here?
Answer: high polyreactivity

Question: For “QVQLVESGGGLVQAGGSLRLSCAASGSILGTYAMGWTIQAPGKERELVAAISSSGRTSYADSEKGRFTISRDNAKNTVYLQMNSLKPEDTAVYYCNASNYIVLINDPDAAPWLYDYWGQVTQVTVSS”, which “polyreactivity (PSR sort gate)” value is on record?
Answer: low polyreactivity

Question: Which “polyreactivity (PSR sort gate)” value does the source give for “QVQLVESGGGLVQAGGSLRLSCAASGSTFPYNAMGWYRQAPGKERELVAAITSDDTTNYADSVKGRFTISRDNAKNTVYLQMNSLKPEDTAVYYCAAEYRYPYLRGAGDYWGQGTQVTVSS” here?
Answer: low polyreactivity

Question: Which “polyreactivity (PSR sort gate)” value does the source give for “QVQLVESGGGLVQAGGSLRLSCAASGSIFTPNAMGWYRQAPGKERELVAAISSSSDRTYYADSVKGRFTISRDNAKNTVYLQMNSLKPEDTAVYYCAAYAQKRYYWGQGTQVTVSS” here?
Answer: high polyreactivity

Question: With “QVQLVESGGGLVQAGGSLRLICAASGSTFGWYAMGWYRQAPGQERELVAAISWGGGSTYYADSVKGRFTISRDNAKNTVYLQMNSLKPEVTAVYYCAKVPLTYSRSGYEYDYWGQGTQVTVSS” as the sequence, how does the “polyreactivity (PSR sort gate)” value read?
Answer: low polyreactivity

Question: For “QVQLVESGGGLVQAGGTLRLSCAASGFIFTGYTMGWYRQAPGKERELVARISSGDSTKYADSVKGRFTISRDNAKNTVYLQMNSLKPEDTAVYYCNKRHGTYGSVYYSREGYWGQGTQVTVSS”, which “polyreactivity (PSR sort gate)” value is on record?
Answer: high polyreactivity

Question: With “QVQLVESGGGLVQAGASLRLSCAASGRTFVGYAMGWYRQAPGKERELVAAISKSSGSTYYADSVKVRFTISRDNAKNTVYLQMNSLKPEDTAVYYCNAARRQCNRYTYDYWGQGTLVTVSS” as the sequence, how does the “polyreactivity (PSR sort gate)” value read?
Answer: high polyreactivity

Question: Which “polyreactivity (PSR sort gate)” value does the source give for “QVQLVESGGGLVQAGGSLRLSCAASGITFRYNAMGWYRQAPGKERQLVAGITGSGGRTYYADSVKGRFTISRDNAKNSVYLQMNSLKPEDTAVYYCAAYPPARRTMDYWGQGTQVTVSS” here?
Answer: low polyreactivity

Question: With “QVQLVESGGGLVQAGGSLRLSCAASGFTFTRYAMGWYRQAPGKERELVAAMTTNSGSRTYYADSVKGRFTISRDNAKNTVYGQMNSLKPEDTAVYYCAADGPVVRGYYWGQGTQVTVSS” as the sequence, how does the “polyreactivity (PSR sort gate)” value read?
Answer: high polyreactivity

Question: For “QVQLVESGGGLVQAGGSLRLSCAASGSILSHYAMGWYRQAPGKERELVAAITTRGGSTYYADSVKGRFTISRDNAKNTVFLQMNSLKPEDTAVYYCAARGGVDSAYYGYWGQGTQVTVSS”, which “polyreactivity (PSR sort gate)” value is on record?
Answer: high polyreactivity

Question: For “QVQLVESGGGLVQAGGSLRLSCAASGITFVRYAMGWYRQAPGKERELVAVISRGGITNYADSVKGRFTISRDNAKNSVYLQMNSLKAEDTAVYYCAVRVRSNVRTYDYWGQGTQVTVSS”, which “polyreactivity (PSR sort gate)” value is on record?
Answer: high polyreactivity

Question: With “QGQLVESGGGLVQAGGSLRLSCAASGFTFWYYAKGWSRQAPRKEREMVAVINTSGASTYADSVKGRFTISRDNAKITVDLQMNSLKPEDTAVYYCAAEGIATYPYDYWGHGTQVTVSS” as the sequence, how does the “polyreactivity (PSR sort gate)” value read?
Answer: low polyreactivity

Question: For “QVQLQDSGGGLVQAGGSLRLSCAASGYIFGSGSMGWFRQAPGKERELVATINNGSSTYYADSVKGRFTISRDNAKNTVYLQMNSLKPEDTAVYYCGVFLYRLTFFYYWGQGNQVTVSS”, which “polyreactivity (PSR sort gate)” value is on record?
Answer: high polyreactivity

Question: For “QVQLVESGGGLVQAGGSHRLSCAASGRLFSWNAMGWYRQAPGTERELVAAITNGGGTYYADSVKGRFTISRDNAKNTVYLQMNSLKPEDTAVYYCNAYRRKLWYPTGLYWGQGTQVTVSS”, which “polyreactivity (PSR sort gate)” value is on record?
Answer: high polyreactivity

Question: Which “polyreactivity (PSR sort gate)” value does the source give for “QVQLVDSGGALVQAGGSLRLSCAASGSTFVVNAIGWYRQAPGKERELVAAIAGGGSTNYADSVKGRFTISRDNAKNTVYLQMNSLKPEDTAVYYCAVDGVEFSSYGYWGQGTQVTVSS” here?
Answer: low polyreactivity

Question: Which “polyreactivity (PSR sort gate)” value does the source give for “QVQLVESGGCLVQAGGSLRLSCAASGFTFRYYAMGWYRQAPGKEREFVAAIRSSGTTTSYADSVKGRFRISRDYAKNTVYLQMNSLKPEDTAVYFCAAGYFGPQQYYYWCQGTQVTVSS” here?
Answer: high polyreactivity

Question: With “QVQLVESGGGLVQAGGSLRLSCAASGFILRYYAMGWYRQPPGKERELVAAISWSGGSTYYADSVMGRFTISRDNAKNTVYLQMNSLKPEDTAVYYCAADRYAILFYAEDYWGQGTQVTVSS” as the sequence, how does the “polyreactivity (PSR sort gate)” value read?
Answer: low polyreactivity

Question: For “QVQLLETGGVLVQAGGSLRLSCAASGFIFGINAMGWYRQAPGKERELVATITSGGGTNYADSVKGRFTISRDNAKINVYLQMNSLKPEDSAVYYCNAQIAWATYEGDYWGQGTQVTVSS”, which “polyreactivity (PSR sort gate)” value is on record?
Answer: low polyreactivity

Question: For “QVQLVESGGGLVQAGGSLRLSWAASGRIIHYNVMGWYRQPPGKERDLVAAIRGGGRSTYYADSVKGRFTISRDNAKNTVYLQMNSLKPEDTAVYYCAKSLSQNTYYHQGYYDDNYWGQGTQVTVSS”, which “polyreactivity (PSR sort gate)” value is on record?
Answer: low polyreactivity

Question: Which “polyreactivity (PSR sort gate)” value does the source give for “QVQLVESGGGLVQAGGSLRLSCAASGRIFGAYAMGWYRQAPGKERELVATITKRGGSTFYADSVKGRFTISRDNAKNTVYLQMNSLKPEDTAVYYCAVSSFYRGRYDYWGQGTQVTVSS” here?
Answer: high polyreactivity

Question: With “QVQLVESGGGLVHAGGSLRLSCAASGRTFVLYVMGWYRQAPGKETEFVADINAGGGSTYYADSVKGRFTISRDNAKNTVYLQMNSLKPEDTAVYYCAATRVLGQLFRFGYWGQGTQVSVSS” as the sequence, how does the “polyreactivity (PSR sort gate)” value read?
Answer: low polyreactivity

Question: For “QVQLVESGGGLVQAGGSLRLSCAASGSIYHYYAMGWYRQAPGKERELVAAISWSGGRTNYADSVKGRFTISRDNAKNTVYLQMNSLKPEDTAVYYCAARARYPNWTYYYWGQGTQVTVSS”, which “polyreactivity (PSR sort gate)” value is on record?
Answer: high polyreactivity

Question: With “QVQLVESGGGLVQAGGSLRLSSAASGSIFSIYAMGWYRQAPGKERELGAAITWSGGSTYYADSVKGRFTISRDNAKNTVYFQMNSLKPEDTAVYYCAAEIWFYYGGRKQRGGYWGQGTQVTVSS” as the sequence, how does the “polyreactivity (PSR sort gate)” value read?
Answer: high polyreactivity

Question: With “QVQLVESGGGLVQAGGSLRLSCAASGSIFYNYAMGWYRQAPGKERQLVATITRSDGSTYYADSVKGRFTISRDNAKNTVYLQMNSLKPEDTAVYYCNADSLWDSAFGYDYWGQGTQVTVSS” as the sequence, how does the “polyreactivity (PSR sort gate)” value read?
Answer: low polyreactivity
